Measurements taken from doi:10.1101/2022.06.21.497044 (bioRxiv, 2022).

Experiments:
[1] = molecular target: T1, GST-ABI5 (Arabidopsis thaliana, UniProt Q9SJN0 1-442); experiment: EMSA
T1 sequence: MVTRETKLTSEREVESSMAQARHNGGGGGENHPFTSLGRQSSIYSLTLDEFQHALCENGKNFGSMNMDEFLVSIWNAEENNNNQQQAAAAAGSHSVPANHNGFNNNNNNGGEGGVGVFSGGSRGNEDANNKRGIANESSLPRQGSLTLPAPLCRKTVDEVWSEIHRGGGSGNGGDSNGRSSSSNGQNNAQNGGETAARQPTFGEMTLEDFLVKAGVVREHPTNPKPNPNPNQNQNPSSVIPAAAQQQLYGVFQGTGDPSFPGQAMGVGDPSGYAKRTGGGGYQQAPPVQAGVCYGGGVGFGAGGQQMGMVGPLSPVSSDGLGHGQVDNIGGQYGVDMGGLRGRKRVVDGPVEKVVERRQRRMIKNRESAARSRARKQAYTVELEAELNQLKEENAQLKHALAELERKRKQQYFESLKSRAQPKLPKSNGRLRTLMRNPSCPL

[2] = molecular target: T2, GST-ABI5 (Arabidopsis thaliana, UniProt Q9SJN0 1-442); experiment: pull-down
T2 sequence: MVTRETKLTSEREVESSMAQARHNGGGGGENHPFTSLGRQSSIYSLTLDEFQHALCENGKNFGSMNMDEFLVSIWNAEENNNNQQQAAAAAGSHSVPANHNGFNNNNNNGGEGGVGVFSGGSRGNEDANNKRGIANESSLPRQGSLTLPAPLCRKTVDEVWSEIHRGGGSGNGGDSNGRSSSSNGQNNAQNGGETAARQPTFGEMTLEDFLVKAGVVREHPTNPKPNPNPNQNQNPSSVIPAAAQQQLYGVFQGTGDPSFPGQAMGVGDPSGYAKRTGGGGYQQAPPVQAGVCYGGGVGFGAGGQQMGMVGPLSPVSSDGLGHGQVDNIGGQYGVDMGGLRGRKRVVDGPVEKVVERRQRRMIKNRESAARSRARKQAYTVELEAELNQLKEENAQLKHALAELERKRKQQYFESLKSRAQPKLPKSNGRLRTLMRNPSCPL

[3] = molecular target: T3, BBX30 (miP1b) (Arabidopsis thaliana, UniProt Q1G3I2 1-117); experiment: EMSA
T3 sequence: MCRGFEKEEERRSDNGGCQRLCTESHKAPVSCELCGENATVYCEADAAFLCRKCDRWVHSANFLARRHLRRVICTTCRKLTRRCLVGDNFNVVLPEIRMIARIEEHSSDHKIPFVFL

[4] = molecular target: T4, BBX31 (miP1a) (Arabidopsis thaliana, UniProt Q9LRM4 1-121); experiment: EMSA
T4 sequence: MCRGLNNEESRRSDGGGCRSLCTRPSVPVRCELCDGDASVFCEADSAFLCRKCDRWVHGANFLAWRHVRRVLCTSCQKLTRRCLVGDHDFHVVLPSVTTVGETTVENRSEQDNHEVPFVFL

B1: BBX30 promoter probe (dsDNA)
DNA 1: GTCAATATTTTTCCACGTGTACAACCAGTTTA
DNA 2: TAAACTGGTTGTACACGTGGAAAAATATTGAC
B1: binds [1].

B2: mutBBX30 probe (dsDNA)
DNA 1: GTCAATATTTTTCCAAAAATACAACCAGTTTA
DNA 2: TAAACTGGTTGTATTTTTGGAAAAATATTGAC
B2: no binding [1].

B3: His-BBX30 (natural protein)
chain: MCRGFEKEEERRSDNGGCQRLCTESHKAPVSCELCGENATVYCEADAAFLCRKCDRWVHSANFLARRHLRRVICTTCRKLTRRCLVGDNFNVVLPEIRMIARIEEHSSDHKIPFVFL
B3: binds [2].

B4: BBX31 promoter probe (dsDNA)
DNA 1: AAATAACAGGGCAAGATTCATCCACGTGTCCAACAACAACACAACACAAA
DNA 2: TTTGTGTTGTGTTGTTGTTGGACACGTGGATGAATCTTGCCCTGTTATTT
B4: binds [1].

B5: mutBBX31 probe (dsDNA)
DNA 1: AAATAACAGGGCAAGATTCATCACCGGGTCCAACAACAACACAACACAAA
DNA 2: TTTGTGTTGTGTTGTTGTTGGACCCGGTGATGAATCTTGCCCTGTTATTT
B5: no binding [1].

B6: His-BBX31 (natural protein)
chain: MCRGLNNEESRRSDGGGCRSLCTRPSVPVRCELCDGDASVFCEADSAFLCRKCDRWVHGANFLAWRHVRRVLCTSCQKLTRRCLVGDHDFHVVLPSVTTVGETTVENRSEQDNHEVPFVFL
B6: binds [2].

B7: EM6 promoter probe (dsDNA)
DNA 1: AATAAAGTCAGACACGTGGCATGTCACCAA
DNA 2: TTGGTGACATGCCACGTGTCTGACTTTATT
B7: no binding [3]; no binding [4].

B8: ABI5 promoter probe (dsDNA)
DNA 1: GCAAGAAACAGAAGAGAGACACGTGCAGGACACGTGTCGTCCGCAGCCGAACGGA
DNA 2: TCCGTTCGGCTGCGGACGACACGTGTCCTGCACGTGTCTCTCTTCTGTTTCTTGC
B8: no binding [3]; no binding [4].
